Usually stoichiometry N stands for the number of molecules, sites or subunits per partner or assembly.

Among the data in PMC2885798 are stoichiometry N values, retold here.

For experiment [1], the target named is nesprin-1α fragment SLR2-7 (full-length nesprin-1α minus the transmembrane domain) (human). Put plainly: dynamic light scattering.
In experiment [2] the target is nesprin-1α fragment SLR2-7ΔAD (SLR2-7 with the adaptive domain deleted) (human). The experiment is described as follows: dynamic light scattering.

As to “nesprin-1α fragment SLR2-7 (full-length nesprin-1α minus the transmembrane domain) (domain or fragment)”, the stoichiometry N in experiment [1] was 2.

In experiment [2], “nesprin-1α fragment SLR2-7ΔAD (SLR2-7 with the adaptive domain deleted) (domain or fragment)” displayed a stoichiometry N of 2.
